Reference: patent US20130129739A1 (Bayer, published 2013)
Several values for one entry are separate records, joined by “and”; a condition that tells them apart may be missing. Equal values may be shown once. Values belong to the binder of their own block, whether it stands above or below them.

Assays:
[1] = target: T1, extracellular domain of human PRLR (monomeric, soluble) (human, UniProt P16471 25-234); experiment: SPR (Biacore), IgG1 directly immobilized, monomeric human PRLR ECD from HEK293 as analyte
T1 construct: also called ECD-PRLR; ECD of PRLR
T1 sequence: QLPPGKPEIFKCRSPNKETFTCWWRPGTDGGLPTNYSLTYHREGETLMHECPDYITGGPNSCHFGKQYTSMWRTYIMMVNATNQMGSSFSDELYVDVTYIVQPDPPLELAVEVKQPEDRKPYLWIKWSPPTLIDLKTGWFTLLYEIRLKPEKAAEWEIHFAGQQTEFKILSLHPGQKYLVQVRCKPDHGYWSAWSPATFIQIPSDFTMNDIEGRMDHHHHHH

[2] = target: T2, human prolactin receptor (PRLR) on cells (human, UniProt P16471 25-622); experiment: FACS on human breast cancer cell line T47D, IgG1
T2 construct: whole, on cells; also called human PRLR; hPRLR
T2 sequence (looked up): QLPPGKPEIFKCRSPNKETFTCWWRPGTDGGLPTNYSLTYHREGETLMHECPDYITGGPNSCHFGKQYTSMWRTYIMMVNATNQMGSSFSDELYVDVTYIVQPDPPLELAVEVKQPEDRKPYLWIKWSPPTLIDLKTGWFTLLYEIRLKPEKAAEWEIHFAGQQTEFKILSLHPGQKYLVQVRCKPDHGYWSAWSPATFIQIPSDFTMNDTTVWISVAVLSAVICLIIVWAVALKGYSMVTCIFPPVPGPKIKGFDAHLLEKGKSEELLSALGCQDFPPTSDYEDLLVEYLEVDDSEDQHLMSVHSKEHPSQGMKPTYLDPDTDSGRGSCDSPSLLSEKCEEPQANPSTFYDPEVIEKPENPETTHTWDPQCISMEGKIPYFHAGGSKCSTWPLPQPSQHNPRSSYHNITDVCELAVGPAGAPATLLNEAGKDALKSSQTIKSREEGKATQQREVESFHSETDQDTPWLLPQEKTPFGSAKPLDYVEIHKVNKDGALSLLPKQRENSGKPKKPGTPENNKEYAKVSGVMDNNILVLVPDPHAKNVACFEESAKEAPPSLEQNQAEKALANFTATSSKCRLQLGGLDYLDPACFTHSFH

[3] = target: T3, murine prolactin receptor (PRLR) on cells (mouse, UniProt Q08501 20-608); experiment: cell-based or functional assay
T3 sequence (looked up): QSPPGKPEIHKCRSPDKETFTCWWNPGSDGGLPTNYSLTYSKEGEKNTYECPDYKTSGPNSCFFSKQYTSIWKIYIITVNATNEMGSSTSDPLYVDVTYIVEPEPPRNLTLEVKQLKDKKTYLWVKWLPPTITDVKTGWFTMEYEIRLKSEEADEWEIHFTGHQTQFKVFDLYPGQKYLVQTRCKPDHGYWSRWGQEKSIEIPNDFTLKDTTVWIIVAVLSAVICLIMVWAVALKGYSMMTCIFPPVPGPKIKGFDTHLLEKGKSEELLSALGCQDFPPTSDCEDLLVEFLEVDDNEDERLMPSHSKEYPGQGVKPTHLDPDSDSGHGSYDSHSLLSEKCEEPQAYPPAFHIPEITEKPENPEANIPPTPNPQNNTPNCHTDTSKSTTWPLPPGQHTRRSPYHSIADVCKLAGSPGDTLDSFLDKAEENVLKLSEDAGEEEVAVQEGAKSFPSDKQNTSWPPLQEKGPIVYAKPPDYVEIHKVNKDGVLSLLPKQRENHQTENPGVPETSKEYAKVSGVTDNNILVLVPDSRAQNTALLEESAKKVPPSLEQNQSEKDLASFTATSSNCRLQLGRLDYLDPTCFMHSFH

[4] = target: T4, rat prolactin receptor (PRLR) on Nb2 lymphoma cells (rat, UniProt P05710 20-610); experiment: cell-based or functional assay
T4 sequence (looked up): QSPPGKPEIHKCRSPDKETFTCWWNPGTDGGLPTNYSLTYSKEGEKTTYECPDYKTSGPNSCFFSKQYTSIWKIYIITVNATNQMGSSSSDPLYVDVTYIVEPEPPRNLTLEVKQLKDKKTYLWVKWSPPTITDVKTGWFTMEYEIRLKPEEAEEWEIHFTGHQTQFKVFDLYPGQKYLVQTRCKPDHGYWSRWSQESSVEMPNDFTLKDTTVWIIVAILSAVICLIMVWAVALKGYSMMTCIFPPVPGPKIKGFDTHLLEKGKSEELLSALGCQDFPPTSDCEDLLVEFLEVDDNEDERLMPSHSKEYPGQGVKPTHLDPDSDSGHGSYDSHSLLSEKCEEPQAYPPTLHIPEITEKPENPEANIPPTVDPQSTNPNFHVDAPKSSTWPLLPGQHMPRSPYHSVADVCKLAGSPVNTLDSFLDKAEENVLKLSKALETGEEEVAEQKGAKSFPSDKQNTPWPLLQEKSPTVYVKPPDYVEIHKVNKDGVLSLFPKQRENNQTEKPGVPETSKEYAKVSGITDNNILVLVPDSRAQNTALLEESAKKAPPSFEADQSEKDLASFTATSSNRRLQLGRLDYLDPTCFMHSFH

[5] = target: T4, rat prolactin receptor (PRLR) on Nb2 …; experiment: FACS on rat lymphoma cell line Nb2, IgG1
[6] = target: T2, human prolactin receptor (PRLR) on cells; experiment: cell-based or functional assay
[7] = target: T3, murine prolactin receptor (PRLR) on …; experiment: flow cytometry on HEK293 cells stably expressing murine PRLR, PE anti-human IgG, fixed 0.37 µg/ml IgG
Procedure: In order to determine the binding characteristics of the anti-PRLR antibodies on mouse and human PRLR expressed on cells, binding was tested by flow cytometry on HEK293 cells stably expressing the human and murine PRLR, respectively. The cells as well as the parental HEK293 cell line without PRLR were harvested, centrifuged and resuspended at approximately 5×10⁶ cells/ml in 1×PBS containing 2% FBS and 0.1% sodium azide (FACS buffer). The antibodies 005-C04, 001-E06 and HE06.642 were diluted to 2-fold final concentration in FACS buffer and added to appropriate sample wells (50 μl/well). For secondary antibody and autofluorescence controls, 50 μl FACS buffer was added to appropriate wells. 50 μl of cell suspension was added to each sample well. Samples were incubated at 4° C. for one hour, washed twice with cold FACS buffer and resuspended in FACS buffer containing PE-conjugated goat anti-human IgG at a 1:100 dilution. Following a 30 min incubation at 4° C., cells were washed twice with cold FACS buffer, resuspended in FACS buffer containing […] propidium iodide (Invitrogen, San Diego, Calif.) and analyzed by flow cytometry. […] This observation is consistent with the finding reported in example 9 about the missing efficacy of HE06.642 in the murine PRLR-dependent luciferase reporter gene assay. […]

- Kd [1]: 1.2 nM
- koff [1]: 0.00013 s⁻¹
- EC50 [2]: 1.5 nM
- IC50, prolactin-activated luciferase reporter gene activity, HEK293 cells with mPRLR [3]: > 50 mg/ml and > 333 nM
- IC50, inhibition of prolactin-induced rat lymphoma cell proliferation (NB2 cells) [4]: 10 µg/ml and 67 nM
- EC50 [5]: 1.1 nM
B1: XHA06.642 (antibody, V domains shown)
VH: EVQLVESGGDLVKPGGSLKLSCAVSGFTFSSYGMSWVRQTPDKRLEWVATVSSGGTYTYYPDSVKGRFTISRDNAKNTLYLQMSSLKSEDSAMYYCARHRGNYYATYYYAMDYWGQGTSVTVSS
VL: DIVLTQSPASLAVSLGQGATISCRASKSVSTSGYTYMHWYQQKPGQPPKLLIYLASNLESGVPARFSGSGSGTDFTLNIHPVEEEDAATYYCQHSGELPPSFGGGTKLEIKR
notes: Novartis antibody (WO2008/022295)

- Kd [1]: 0.3 nM
- koff [1]: 0.00032 s⁻¹
- EC50 [2]: 1.8 nM
- IC50, inhibition of prolactin-activated Ba/F cell proliferation (human PRLR) [6]: 0.34 µg/ml and 2.2 nM
- IC50, prolactin-activated luciferase reporter gene activity, HEK293 cells with hPRLR [6]: 0.63 mg/ml and 4.2 nM
- IC50, inhibition of prolactin-activated Ba/F cell proliferation (murine PRLR) [3]: > 30 mg/ml and > 200 nM
- binding result [7]: no binding (tested: 0.37 µg/ml)
- EC50 [5]: 0.9 nM
B2: HE06.642 (antibody, V domains shown)
VH: EVQLVESGGGLVQPGGSLRLSCAVSGFTFSSYGMSWVRQAPGKGLEWVATVSSGGTYTYYPDSVKGRFTISRDNSKNTLYLQMNSLRAEDTAVYYCARHRGNYYATYYYAMDYWGQGTLVTVSS
VL: DIVLTQSPDSLAVSLGERATINCKASKSVSTSGYTYMHWYQQKPGQPPKLLIYLASNRESGVPDRFSGSGSGTDFTLTISPVQAEDVATYYCQHSGELPPSFGQGTKLEIKR
notes: Human Engineered Novartis antibody (WO2008/022295); tested as human IgG1
